Results from patent publication US20160130322A1.

Legend:
[1] = biological target: acylated ghrelin (AG) (mouse) (UniProt Q9EQX0); test: cell-based or functional assay
[2] = biological target: unacylated ghrelin (UAG) (mouse) (UniProt Q9EQX0); test: cell-based or functional assay

levels of AG in circulation of mice expressing GHSR/Fc (plasma enzyme-linked immunoassay) [1]: 1.41 pg/mL
levels of total ghrelin (primarily UAG) in circulation of mice expressing GHSR/Fc (plasma radioimmunoassay) [2]: 141 pg/mL
Substance: GHSR/Fc (Nt-EC1-EC2 of mouse GHS-R1a fused with a mouse IgG constant region (Fc)) (Fc fusion)
